Where no end group is shown, it is not given here.
Assays:
[1] = molecular target: thrombin-cleaved human osteopontin (human), P10451; test: cell-based or functional assay
[2] = molecular target: T1, hOPN5-BSA conjugate (human osteopontin peptide CVDTYDGRGDSVVYGLRS coupled to BSA) (human, also: coupled to maleimide-activated BSA (Sulfo-EMCS), site not given here); test: ELISA, hOPN5-BSA conjugate on the plate, HRP-labeled anti-human IgG (H+L) detection
T1 construct: Immobilized on the ELISA plate at 200 ng/100 uL/well as a BSA conjugate; also called hOPN5 peptide
T1 peptide: CVDTYDGRGDSVVYGLRS
Experimental: (§1) The peptide having the above-described sequence (hereinafter also referred to as the hOPN5 peptide) was reacted with BSA incorporating a maleimide group introduced using Sulfo-EMCS (Dojindo Laboratories) to prepare a hOPN5-BSA conjugate. The hOPN5-BSA conjugate was immobilized at 200 ng/100 μL/well on an ELISA plate (Nunc Company) at 4° C. overnight, and the plate was washed, after which blocking was performed with PBS supplemented with 1% BSA at 4° C. overnight. An antibody sample diluted with PBS supplemented with 1% BSA was added to the plate at 100 μL/well, and they were reacted at 37° C. for 1 hour. Detection was performed using a peroxidase (HRP)-labeled anti-human IgG (H+L) antibody (Wako Pure Chemical Industries, Ltd.). Absorbance at a wavelength of 450 nm was measured using a microplate reader (Molecular Devices Company).

biotinized hOPN5 peptide = molecular target: T2, biotinized hOPN5 peptide (human, also: biotinylated, site not given here); test: surface plasmon resonance (BIAcore), biotinized hOPN5 peptide on Sensor Chip SA, F(ab')2-PEG at 5 ug/mL
T2 peptide: CVDTYDGRGDSVVYGLRS
Experimental: The binding activity of the purified F(ab′)₂—PEG of R2K1v1.7 to the hOPN5 peptide was confirmed using surface plasmon resonance assay. The biotinized hOPN5 peptide was immobilized on Sensor Chip SA (BIAcore Company), and its binding activity was confirmed using the F(ab′)₂—PEG, previously diluted to 5 μg/mL with HBS-EP buffer (BIAcore Company); the results are shown in FIG. 16. From a rise in the signal, this F(ab′)₂—PEG was confirmed as having the same binding activity to the hOPN5 peptide as that of R2K1v1.7.

[3] = molecular target: human OPN peptide (SVVYGLR sequence of human OPN) (human); test: method not stated
[4] = molecular target: T1, hOPN5-BSA conjugate (human osteopontin …); test: ELISA, HRP-labeled anti-E-Tag antibody detection
Experimental: as §1
(§2) The binding activity of the purified R2K1v1.7-scFv to the hOPN5 peptide was measured by an ELISA method. The method was generally the same as described above; in this measurement, HRP-labeled anti-E-Tag antibody was used as the labeled antibody.

BSA = molecular target: T3, BSA (UniProt P02769 25-607); test: ELISA, detection with HRP-labeled anti-E-Tag antibody
T3 construct: also called negative control BSA
Experimental: as §1, §2

T3 sequence (P02769 25-607 limits assumed): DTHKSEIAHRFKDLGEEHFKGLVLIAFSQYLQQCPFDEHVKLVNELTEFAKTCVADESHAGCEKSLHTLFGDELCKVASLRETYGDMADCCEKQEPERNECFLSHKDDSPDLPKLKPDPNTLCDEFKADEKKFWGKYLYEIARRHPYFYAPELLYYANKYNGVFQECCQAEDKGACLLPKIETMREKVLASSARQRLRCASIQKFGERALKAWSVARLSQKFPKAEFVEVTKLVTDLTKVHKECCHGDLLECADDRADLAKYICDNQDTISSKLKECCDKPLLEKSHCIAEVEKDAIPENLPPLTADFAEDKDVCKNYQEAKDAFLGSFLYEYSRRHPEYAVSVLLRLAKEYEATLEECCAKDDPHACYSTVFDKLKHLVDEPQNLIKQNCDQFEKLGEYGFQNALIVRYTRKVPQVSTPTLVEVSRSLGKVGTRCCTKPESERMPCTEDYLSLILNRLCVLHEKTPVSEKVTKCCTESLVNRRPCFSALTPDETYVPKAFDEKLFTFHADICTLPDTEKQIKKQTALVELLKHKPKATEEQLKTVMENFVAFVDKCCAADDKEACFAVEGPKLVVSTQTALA
Chain of thrombin-cleaved human osteopontin (human), P10451 (P10451 17-314): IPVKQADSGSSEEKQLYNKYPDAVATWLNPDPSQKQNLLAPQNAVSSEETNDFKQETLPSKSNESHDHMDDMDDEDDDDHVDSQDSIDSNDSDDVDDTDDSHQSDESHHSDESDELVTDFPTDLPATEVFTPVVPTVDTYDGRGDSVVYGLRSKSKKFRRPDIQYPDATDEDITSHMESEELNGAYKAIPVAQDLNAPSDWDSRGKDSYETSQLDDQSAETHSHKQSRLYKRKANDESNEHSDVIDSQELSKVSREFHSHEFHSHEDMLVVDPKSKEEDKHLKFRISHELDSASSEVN

B1: R2K1v1.8 antibody (antibody, V domains shown)
VH: QVQLVQSGAELVRPGSSVKVSCKASGYTFTDYEMHWVKQTPVHGLEWIGAIHPGRGGTAYNQKFKGKATLTADKSTSTAYMELSSLTSEDTAVYYCTRITGYFDVWGQGTTVTVSS
VL: DVVMTQSPLSLPVTLGQPASISCRSSQSIVHSNGNTYLEWYLQKPGQSPQLLIYKVSNRFSGVPDRFSGSGSGTDFTLKISRVEAEDVGVYYCFQGSHVPLTFGQGTKLEIKR
notes: Only entries with a leader are tied to VH1.8 and VL1.8; also called humanized 2K1 antibody; R2K1 antibody
Mean cell count (migration of TNF-alpha-activated human peripheral blood monocytes, 48-well microchemotaxis chamber; antibody 50 ug/mL) [1]: 688 cells/mm^3
binding result [2]: binds

B2: polyethylene glycol modified F(ab')2 of the R2K1v1.7 antibody (other, not shown: small tags and cut ends)
heavy: QVQLQQSGAEVKKPGASVKVSCKALGYTFTDYEMHWVKQTPVHGLEWIGAIHPGRGGTAYNQKFKGKATLTADKSTSTAYMELSSLTSEDTAVYYCTRITGYFDVWGQGTTVTVSS
light: DVVMTQSPLSLSVTLGQPASISCRSSQSIVHSNGNTYLEWYLQKPGQSPQLLIYKVSNRFSGVPDRFSGSGSGTDFTLKISRVEAEDVGVYYCFQGSHVPLTFGQGTKLEIKRTVAAPSVFIFPPSDEQLKSGTASVVCLLNNFYPREAKVQWKVDNALQSGNSQESVTEQDSKDSTYSLSSTLTLSKADYEKHKVYACEVTHQGLSSPVTKSFNRGEC
modifications: maleimidated polyethylene glycol SUNBRIGHT ME-120MA coupled to thiol groups activated by DTT reduction
notes: Made by pepsin digestion of R2K1v1.7, reduction of F(ab')2 to Fab' with DTT and coupling with maleimide-PEG; also called F(ab')2-PEG; F(ab')2-PEG of R2K1v1.7
binding result (biotinized hOPN5 peptide): binds

B3: R2K1v1.7 antibody (antibody, human IgG1, kappa, V domains shown)
VH: QVQLQQSGAEVKKPGASVKVSCKALGYTFTDYEMHWVKQTPVHGLEWIGAIHPGRGGTAYNQKFKGKATLTADKSTSTAYMELSSLTSEDTAVYYCTRITGYFDVWGQGTTVTVSS
VL: DVVMTQSPLSLSVTLGQPASISCRSSQSIVHSNGNTYLEWYLQKPGQSPQLLIYKVSNRFSGVPDRFSGSGSGTDFTLKISRVEAEDVGVYYCFQGSHVPLTFGQGTKLEIKR
fold binding affinity against the corresponding monkey OPN peptide [3]: > 100 times

B4: R2K1v1.7-scFv (scFv)
scFv: QVQLQQSGAEVKKPGASVKVSCKALGYTFTDYEMHWVKQTPVHGLEWIGAIHPGRGGTAYNQKFKGKATLTADKSTSTAYMELSSLTSEDTAVYYCTRITGYFDVWGQGTTVTVSSGGGGSGGGGSGGGGSDVVMTQSPLSLSVTLGQPASISCRSSQSIVHSNGNTYLEWYLQKPGQSPQLLIYKVSNRFSGVPDRFSGSGSGTDFTLKISRVEAEDVGVYYCFQGSHVPLTFGQGTKLEIKR
notes: Structure VH1.7-linker-VL1.7, expressed in E. coli HB2151 periplasm, nearly all monomeric by gel filtration; also called scFv of R2K1v1.7; purified R2K1v1.7-scFv; not shown: C-terminal E-Tag from the pCANTAB5E vector, and any joining residues from the NotI site
binding result [4]: binds
binding result (BSA): no binding
